B1: Mothers against decapentaplegic homolog 4 (Homo sapiens), Q13485 (parent)
chain: MDNMSITNTPTSNDACLSIVHSLMCHRQGGESETFAKRAIESLVKKLKEKKDELDSLITAITTNGAHPSKCVTIQRTLDGRLQVAGRKGFPHVIYARLWRWPDLHKNELKHVKYCQYAFDLKCDSVCVNPYHYERVVSPGIDLSGLTLQSNAPSSMMVKDEYVHDFEGQPSLSTEGHSIQTIQHPPSNRASTETYSTPALLAPSESNATSTANFPNIPVASTSQPASILGGSHSEGLLQIASGPQPGQQQNGFTGQPATYHHNSTTTWTGSRTAPYTPNLPHHQNGHLQHHPPMPPHPGHYWPVHNELAFQPPISNHPAPEYWCSIAYFEMDVQVGETFKVPSSCPIVTVDGYVDPSGGDRFCLGQLSNVHRTEAIERARLHIGKGVQLECKGEGDVWVRCLSDHAVFVQSYYLDREAGRAPGDAVHKIYPSAYIKVFDLRQCHRQMQQQAATAQAAAAAQAAAVAGNIPGPGSVGGIAPAISLSAAAGIGVDDLRRLCILRMSFVKGWGPDYPRQSIKETPCWIEIHLHRALQLLDEVLHTMPIADPQPLD
partner: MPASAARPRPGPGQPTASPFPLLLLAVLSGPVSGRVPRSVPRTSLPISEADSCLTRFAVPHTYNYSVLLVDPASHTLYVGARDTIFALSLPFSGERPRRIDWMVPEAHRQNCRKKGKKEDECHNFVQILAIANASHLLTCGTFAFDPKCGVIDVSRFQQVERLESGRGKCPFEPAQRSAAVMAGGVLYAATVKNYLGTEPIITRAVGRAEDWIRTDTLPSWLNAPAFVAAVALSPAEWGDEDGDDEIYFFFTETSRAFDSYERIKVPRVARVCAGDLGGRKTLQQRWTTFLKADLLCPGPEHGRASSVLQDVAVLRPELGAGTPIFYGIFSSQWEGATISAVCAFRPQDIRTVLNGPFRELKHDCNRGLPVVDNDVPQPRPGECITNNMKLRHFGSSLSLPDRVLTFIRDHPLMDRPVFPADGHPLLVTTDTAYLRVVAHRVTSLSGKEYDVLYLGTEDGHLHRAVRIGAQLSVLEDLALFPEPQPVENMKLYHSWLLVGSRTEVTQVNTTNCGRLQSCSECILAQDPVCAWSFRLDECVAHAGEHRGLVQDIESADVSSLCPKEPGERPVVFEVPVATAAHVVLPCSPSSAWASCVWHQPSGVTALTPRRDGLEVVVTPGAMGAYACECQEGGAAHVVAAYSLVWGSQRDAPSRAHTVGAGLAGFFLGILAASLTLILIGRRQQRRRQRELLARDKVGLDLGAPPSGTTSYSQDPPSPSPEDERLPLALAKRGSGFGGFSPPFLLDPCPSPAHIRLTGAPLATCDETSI
B2: Mothers against decapentaplegic homolog 4 (Homo sapiens), Q13485 (parent)
chain: B1 chain
partner: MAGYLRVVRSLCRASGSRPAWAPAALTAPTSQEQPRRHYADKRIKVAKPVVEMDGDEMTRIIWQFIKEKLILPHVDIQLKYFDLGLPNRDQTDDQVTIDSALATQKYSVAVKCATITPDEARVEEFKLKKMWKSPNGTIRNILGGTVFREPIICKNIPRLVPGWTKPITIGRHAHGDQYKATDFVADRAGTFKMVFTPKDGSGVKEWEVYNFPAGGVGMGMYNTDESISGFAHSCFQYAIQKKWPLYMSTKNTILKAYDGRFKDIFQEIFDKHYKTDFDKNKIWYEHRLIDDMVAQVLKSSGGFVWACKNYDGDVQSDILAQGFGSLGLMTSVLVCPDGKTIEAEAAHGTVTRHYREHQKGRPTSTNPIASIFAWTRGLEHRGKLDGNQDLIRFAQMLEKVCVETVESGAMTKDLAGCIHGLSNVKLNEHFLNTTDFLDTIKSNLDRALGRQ
B3: Mothers against decapentaplegic homolog 4 (Homo sapiens), Q13485 (parent)
chain: B1 chain
partner: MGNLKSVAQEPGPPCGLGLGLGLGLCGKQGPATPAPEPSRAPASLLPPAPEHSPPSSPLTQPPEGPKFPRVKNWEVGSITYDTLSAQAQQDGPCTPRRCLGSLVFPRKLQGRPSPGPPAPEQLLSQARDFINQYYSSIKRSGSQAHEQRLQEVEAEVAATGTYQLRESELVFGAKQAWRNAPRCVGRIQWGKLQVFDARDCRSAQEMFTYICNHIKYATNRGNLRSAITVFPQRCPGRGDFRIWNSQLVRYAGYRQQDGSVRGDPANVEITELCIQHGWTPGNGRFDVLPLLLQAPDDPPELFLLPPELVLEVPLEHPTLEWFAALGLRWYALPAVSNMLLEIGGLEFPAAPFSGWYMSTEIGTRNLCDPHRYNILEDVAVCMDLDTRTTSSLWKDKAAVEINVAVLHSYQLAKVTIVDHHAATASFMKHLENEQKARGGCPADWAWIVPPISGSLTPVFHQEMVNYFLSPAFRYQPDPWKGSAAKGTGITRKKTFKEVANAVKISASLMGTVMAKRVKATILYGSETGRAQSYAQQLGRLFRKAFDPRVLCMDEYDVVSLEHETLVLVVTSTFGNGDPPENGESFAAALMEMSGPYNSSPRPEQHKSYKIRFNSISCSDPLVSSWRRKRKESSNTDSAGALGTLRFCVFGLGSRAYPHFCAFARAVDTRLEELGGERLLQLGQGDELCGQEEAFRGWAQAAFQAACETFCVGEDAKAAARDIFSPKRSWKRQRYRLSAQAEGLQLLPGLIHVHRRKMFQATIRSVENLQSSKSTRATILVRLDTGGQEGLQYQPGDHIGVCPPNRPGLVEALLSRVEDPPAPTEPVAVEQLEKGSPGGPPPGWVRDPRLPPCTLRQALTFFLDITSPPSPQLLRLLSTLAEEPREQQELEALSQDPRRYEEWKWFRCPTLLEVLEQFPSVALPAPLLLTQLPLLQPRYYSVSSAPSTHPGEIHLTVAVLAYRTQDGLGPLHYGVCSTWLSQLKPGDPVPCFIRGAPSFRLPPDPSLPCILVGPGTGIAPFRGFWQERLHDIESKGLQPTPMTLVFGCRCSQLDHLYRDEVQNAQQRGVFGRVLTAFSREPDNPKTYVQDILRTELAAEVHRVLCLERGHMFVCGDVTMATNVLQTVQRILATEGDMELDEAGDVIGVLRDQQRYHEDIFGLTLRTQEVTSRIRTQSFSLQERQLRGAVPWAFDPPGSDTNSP
B4: Mothers against decapentaplegic homolog 4 (Homo sapiens), Q13485 (parent)
chain: B1 chain
partner: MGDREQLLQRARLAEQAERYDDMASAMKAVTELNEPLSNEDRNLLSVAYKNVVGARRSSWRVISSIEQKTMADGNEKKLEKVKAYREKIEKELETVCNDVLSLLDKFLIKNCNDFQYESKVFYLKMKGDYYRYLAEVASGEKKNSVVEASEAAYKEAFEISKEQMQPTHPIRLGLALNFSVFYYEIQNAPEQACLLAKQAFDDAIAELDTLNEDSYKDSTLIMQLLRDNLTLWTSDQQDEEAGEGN

Variants of: B1
Details: with sem4f_human SEMA4F

effect of a mutation on the interaction | Variant
with no effect | R361H

Variants of: B1
Details: with sem4f_human SEMA4F
Remark: another data set of the same source

effect of a mutation on the interaction | Variant
with no effect | R361C

Variants of: B2
Details: with idhp_human IDH2, P48735

effect of a mutation on the interaction | Variant
with no effect | G386D

Variants of: B3
Details: with nos3_human NOS3, P29474

effect of a mutation on the interaction | Variant
with no effect | G386D

Variants of: B3
Details: with nos3_human NOS3, P29474
Remark: another data set of the same source

effect of a mutation on the interaction | Variant
increasing interaction strength | G386D

Variants of: B3
Details: with nos3_human NOS3, P29474
Remark: another data set of the same source

effect of a mutation on the interaction | Variant
with no effect | R361H

Variants of: B4
Details: with 1433f_human YWHAH

effect of a mutation on the interaction | Variant
with no effect | R361C

Variants of: B4
Details: with 1433f_human YWHAH
Remark: another data set of the same source

effect of a mutation on the interaction | Variant
with no effect | R361H
